{"source": "patent US20190185537A1", "about": "(AstraZeneca / MedImmune, published 2019)", "binders": {"B1": {"name": "g850 (peptide)", "peptide": "HSQGTFTSDYSRYK([γGlu-Palmitoyl])DSRSARDFVAWLEA-NH2", "modifications": "N-terminus assumed", "SMILES": "CCCCCCCCCCCCCCCC(=O)N[C@@H](CCC(=O)NCCCC[C@H](NC(=O)[C@H](Cc1ccc(O)cc1)NC(=O)[C@H](CCCNC(=N)N)NC(=O)[C@H](CO)NC(=O)[C@H](Cc1ccc(O)cc1)NC(=O)[C@H](CC(=O)O)NC(=O)[C@H](CO)NC(=O)[C@@H](NC(=O)[C@H](Cc1ccccc1)NC(=O)[C@@H](NC(=O)CNC(=O)[C@H](CCC(N)=O)NC(=O)[C@H](CO)NC(=O)[C@@H](N)Cc1c[nH]cn1)[C@@H](C)O)[C@@H](C)O)C(=O)N[C@@H](CC(=O)O)C(=O)N[C@@H](CO)C(=O)N[C@@H](CCCNC(=N)N)C(=O)N[C@@H](CO)C(=O)N[C@@H](C)C(=O)N[C@@H](CCCNC(=N)N)C(=O)N[C@@H](CC(=O)O)C(=O)N[C@@H](Cc1ccccc1)C(=O)N[C@H](C(=O)N[C@@H](C)C(=O)N[C@@H](Cc1c[nH]c2ccccc12)C(=O)N[C@@H](CC(C)C)C(=O)N[C@@H](CCC(=O)O)C(=O)N[C@@H](C)C(N)=O)C(C)C)C(=O)O"}, "B2": {"name": "g804 (peptide)", "peptide": "HSQGTFTSDYSKYK([γGlu-Palmitoyl])DSRRARDFVAWLEA-NH2", "modifications": "N-terminus assumed", "SMILES": "CCCCCCCCCCCCCCCC(=O)N[C@@H](CCC(=O)NCCCC[C@H](NC(=O)[C@H](Cc1ccc(O)cc1)NC(=O)[C@H](CCCCN)NC(=O)[C@H](CO)NC(=O)[C@H](Cc1ccc(O)cc1)NC(=O)[C@H](CC(=O)O)NC(=O)[C@H](CO)NC(=O)[C@@H](NC(=O)[C@H](Cc1ccccc1)NC(=O)[C@@H](NC(=O)CNC(=O)[C@H](CCC(N)=O)NC(=O)[C@H](CO)NC(=O)[C@@H](N)Cc1c[nH]cn1)[C@@H](C)O)[C@@H](C)O)C(=O)N[C@@H](CC(=O)O)C(=O)N[C@@H](CO)C(=O)N[C@@H](CCCNC(=N)N)C(=O)N[C@@H](CCCNC(=N)N)C(=O)N[C@@H](C)C(=O)N[C@@H](CCCNC(=N)N)C(=O)N[C@@H](CC(=O)O)C(=O)N[C@@H](Cc1ccccc1)C(=O)N[C@H](C(=O)N[C@@H](C)C(=O)N[C@@H](Cc1c[nH]c2ccccc12)C(=O)N[C@@H](CC(C)C)C(=O)N[C@@H](CCC(=O)O)C(=O)N[C@@H](C)C(N)=O)C(C)C)C(=O)O"}, "B3": {"name": "g817 (peptide)", "peptide": "HSQGTFTSDYSKYK([γGlu-Palmitoyl])DSRAAQDFVQWLEAGG-NH2", "modifications": "N-terminus assumed", "SMILES": "CCCCCCCCCCCCCCCC(=O)N[C@@H](CCC(=O)NCCCC[C@H](NC(=O)[C@H](Cc1ccc(O)cc1)NC(=O)[C@H](CCCCN)NC(=O)[C@H](CO)NC(=O)[C@H](Cc1ccc(O)cc1)NC(=O)[C@H](CC(=O)O)NC(=O)[C@H](CO)NC(=O)[C@@H](NC(=O)[C@H](Cc1ccccc1)NC(=O)[C@@H](NC(=O)CNC(=O)[C@H](CCC(N)=O)NC(=O)[C@H](CO)NC(=O)[C@@H](N)Cc1c[nH]cn1)[C@@H](C)O)[C@@H](C)O)C(=O)N[C@@H](CC(=O)O)C(=O)N[C@@H](CO)C(=O)N[C@@H](CCCNC(=N)N)C(=O)N[C@@H](C)C(=O)N[C@@H](C)C(=O)N[C@@H](CCC(N)=O)C(=O)N[C@@H](CC(=O)O)C(=O)N[C@@H](Cc1ccccc1)C(=O)N[C@H](C(=O)N[C@@H](CCC(N)=O)C(=O)N[C@@H](Cc1c[nH]c2ccccc12)C(=O)N[C@@H](CC(C)C)C(=O)N[C@@H](CCC(=O)O)C(=O)N[C@@H](C)C(=O)NCC(=O)NCC(N)=O)C(C)C)C(=O)O"}, "B4": {"name": "g836 (peptide)", "peptide": "HSQGTFTSDYSKYK([γGlu-Palmitoyl])DSERARDFVEWLEAGG-NH2", "modifications": "N-terminus assumed", "SMILES": "CCCCCCCCCCCCCCCC(=O)N[C@@H](CCC(=O)NCCCC[C@H](NC(=O)[C@H](Cc1ccc(O)cc1)NC(=O)[C@H](CCCCN)NC(=O)[C@H](CO)NC(=O)[C@H](Cc1ccc(O)cc1)NC(=O)[C@H](CC(=O)O)NC(=O)[C@H](CO)NC(=O)[C@@H](NC(=O)[C@H](Cc1ccccc1)NC(=O)[C@@H](NC(=O)CNC(=O)[C@H](CCC(N)=O)NC(=O)[C@H](CO)NC(=O)[C@@H](N)Cc1c[nH]cn1)[C@@H](C)O)[C@@H](C)O)C(=O)N[C@@H](CC(=O)O)C(=O)N[C@@H](CO)C(=O)N[C@@H](CCC(=O)O)C(=O)N[C@@H](CCCNC(=N)N)C(=O)N[C@@H](C)C(=O)N[C@@H](CCCNC(=N)N)C(=O)N[C@@H](CC(=O)O)C(=O)N[C@@H](Cc1ccccc1)C(=O)N[C@H](C(=O)N[C@@H](CCC(=O)O)C(=O)N[C@@H](Cc1c[nH]c2ccccc12)C(=O)N[C@@H](CC(C)C)C(=O)N[C@@H](CCC(=O)O)C(=O)N[C@@H](C)C(=O)NCC(=O)NCC(N)=O)C(C)C)C(=O)O"}, "B5": {"name": "g876 (peptide)", "peptide": "HSQGTFTSDYSEYK([γGlu-Palmitoyl])DSRRARDFVEWLEAGG-NH2", "modifications": "N-terminus assumed", "SMILES": "CCCCCCCCCCCCCCCC(=O)N[C@@H](CCC(=O)NCCCC[C@H](NC(=O)[C@H](Cc1ccc(O)cc1)NC(=O)[C@H](CCC(=O)O)NC(=O)[C@H](CO)NC(=O)[C@H](Cc1ccc(O)cc1)NC(=O)[C@H](CC(=O)O)NC(=O)[C@H](CO)NC(=O)[C@@H](NC(=O)[C@H](Cc1ccccc1)NC(=O)[C@@H](NC(=O)CNC(=O)[C@H](CCC(N)=O)NC(=O)[C@H](CO)NC(=O)[C@@H](N)Cc1c[nH]cn1)[C@@H](C)O)[C@@H](C)O)C(=O)N[C@@H](CC(=O)O)C(=O)N[C@@H](CO)C(=O)N[C@@H](CCCNC(=N)N)C(=O)N[C@@H](CCCNC(=N)N)C(=O)N[C@@H](C)C(=O)N[C@@H](CCCNC(=N)N)C(=O)N[C@@H](CC(=O)O)C(=O)N[C@@H](Cc1ccccc1)C(=O)N[C@H](C(=O)N[C@@H](CCC(=O)O)C(=O)N[C@@H](Cc1c[nH]c2ccccc12)C(=O)N[C@@H](CC(C)C)C(=O)N[C@@H](CCC(=O)O)C(=O)N[C@@H](C)C(=O)NCC(=O)NCC(N)=O)C(C)C)C(=O)O"}, "B6": {"name": "g805 (peptide)", "peptide": "HSQGTFTSDYSKYK([γGlu-Palmitoyl])DSRRARDFVEWLEAGG-NH2", "modifications": "N-terminus assumed", "SMILES": "CCCCCCCCCCCCCCCC(=O)N[C@@H](CCC(=O)NCCCC[C@H](NC(=O)[C@H](Cc1ccc(O)cc1)NC(=O)[C@H](CCCCN)NC(=O)[C@H](CO)NC(=O)[C@H](Cc1ccc(O)cc1)NC(=O)[C@H](CC(=O)O)NC(=O)[C@H](CO)NC(=O)[C@@H](NC(=O)[C@H](Cc1ccccc1)NC(=O)[C@@H](NC(=O)CNC(=O)[C@H](CCC(N)=O)NC(=O)[C@H](CO)NC(=O)[C@@H](N)Cc1c[nH]cn1)[C@@H](C)O)[C@@H](C)O)C(=O)N[C@@H](CC(=O)O)C(=O)N[C@@H](CO)C(=O)N[C@@H](CCCNC(=N)N)C(=O)N[C@@H](CCCNC(=N)N)C(=O)N[C@@H](C)C(=O)N[C@@H](CCCNC(=N)N)C(=O)N[C@@H](CC(=O)O)C(=O)N[C@@H](Cc1ccccc1)C(=O)N[C@H](C(=O)N[C@@H](CCC(=O)O)C(=O)N[C@@H](Cc1c[nH]c2ccccc12)C(=O)N[C@@H](CC(C)C)C(=O)N[C@@H](CCC(=O)O)C(=O)N[C@@H](C)C(=O)NCC(=O)NCC(N)=O)C(C)C)C(=O)O"}, "B7": {"name": "g781 (peptide)", "peptide": "HSQGTFTSDYSKYLDK([γGlu-Palmitoyl])RRARDFVAWLEAGG-NH2", "modifications": "N-terminus assumed", "SMILES": "CCCCCCCCCCCCCCCC(=O)N[C@@H](CCC(=O)NCCCC[C@H](NC(=O)[C@H](CC(=O)O)NC(=O)[C@H](CC(C)C)NC(=O)[C@H](Cc1ccc(O)cc1)NC(=O)[C@H](CCCCN)NC(=O)[C@H](CO)NC(=O)[C@H](Cc1ccc(O)cc1)NC(=O)[C@H](CC(=O)O)NC(=O)[C@H](CO)NC(=O)[C@@H](NC(=O)[C@H](Cc1ccccc1)NC(=O)[C@@H](NC(=O)CNC(=O)[C@H](CCC(N)=O)NC(=O)[C@H](CO)NC(=O)[C@@H](N)Cc1c[nH]cn1)[C@@H](C)O)[C@@H](C)O)C(=O)N[C@@H](CCCNC(=N)N)C(=O)N[C@@H](CCCNC(=N)N)C(=O)N[C@@H](C)C(=O)N[C@@H](CCCNC(=N)N)C(=O)N[C@@H](CC(=O)O)C(=O)N[C@@H](Cc1ccccc1)C(=O)N[C@H](C(=O)N[C@@H](C)C(=O)N[C@@H](Cc1c[nH]c2ccccc12)C(=O)N[C@@H](CC(C)C)C(=O)N[C@@H](CCC(=O)O)C(=O)N[C@@H](C)C(=O)NCC(=O)NCC(N)=O)C(C)C)C(=O)O"}}, "note": "Numbered stars: 1 amine (or outer) side, 2 acyl side, 3 side chain; on linkers, the order of the positions; unused ones are H or OH. Side chains are listed from the residue outwards. Ends that are not written are not given here. * marks the point of attachment. γGlu = O=C(O)[C@H](CCC(=O)[*:2])N[*:1]; Palmitoyl = CCCCCCCCCCCCCCCC(=O)*"}
{"molecular_target": "human GLP-1 receptor (human, UniProt P43220 24-463)", "sequence (P43220 24-463)": "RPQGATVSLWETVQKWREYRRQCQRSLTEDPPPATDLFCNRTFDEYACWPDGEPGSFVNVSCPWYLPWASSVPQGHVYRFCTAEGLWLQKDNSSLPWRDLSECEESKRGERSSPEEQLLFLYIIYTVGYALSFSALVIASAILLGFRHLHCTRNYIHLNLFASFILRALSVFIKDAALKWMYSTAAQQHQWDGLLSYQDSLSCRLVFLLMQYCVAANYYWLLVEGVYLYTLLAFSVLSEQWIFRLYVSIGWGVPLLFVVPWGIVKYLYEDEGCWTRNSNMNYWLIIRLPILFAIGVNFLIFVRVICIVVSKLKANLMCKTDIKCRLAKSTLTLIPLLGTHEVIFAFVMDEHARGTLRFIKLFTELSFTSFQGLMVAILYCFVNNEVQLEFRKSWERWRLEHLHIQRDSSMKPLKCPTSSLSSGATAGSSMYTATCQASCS", "assay": "cell-based or functional assay", "units": {"cAMP EC50 (assay 1)": "pM"}}
{"binder": "B1", "cAMP EC50 (assay 1)": 21.2}
{"binder": "B2", "cAMP EC50 (assay 1)": 71.5}
{"binder": "B3", "cAMP EC50 (assay 1)": 25.1}
{"binder": "B4", "cAMP EC50 (assay 1)": 124}
{"binder": "B5", "cAMP EC50 (assay 1)": 86.3}
{"binder": "B6", "cAMP EC50 (assay 1)": 22.8}
{"binder": "B7", "cAMP EC50 (assay 1)": 104}
{"molecular_target": "T1, human glucose-dependent insulinotropic peptide (gastric inhibitory polypeptide) receptor (human) (UniProt P48546)", "T1 sequence (looked up)": "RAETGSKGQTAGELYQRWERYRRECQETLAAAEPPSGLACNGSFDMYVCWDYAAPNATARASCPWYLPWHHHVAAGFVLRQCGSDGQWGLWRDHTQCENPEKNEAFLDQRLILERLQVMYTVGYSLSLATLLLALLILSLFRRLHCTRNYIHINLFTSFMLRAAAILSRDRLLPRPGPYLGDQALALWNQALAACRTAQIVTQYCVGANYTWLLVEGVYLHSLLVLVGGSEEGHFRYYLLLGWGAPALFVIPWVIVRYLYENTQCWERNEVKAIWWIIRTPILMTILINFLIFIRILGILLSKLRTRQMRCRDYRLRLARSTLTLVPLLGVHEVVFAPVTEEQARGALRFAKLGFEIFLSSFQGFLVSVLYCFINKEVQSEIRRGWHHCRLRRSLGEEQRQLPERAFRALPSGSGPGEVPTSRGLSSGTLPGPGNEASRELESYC", "assay": "cell-based or functional assay", "units": {"cAMP EC50 (assay 1)": "nM"}}
{"binder": "B1", "cAMP EC50 (assay 1)": 89.6}
{"binder": "B2", "cAMP EC50 (assay 1)": 99.7}
{"binder": "B3", "cAMP EC50 (assay 1)": 15.2}
{"binder": "B4", "cAMP EC50 (assay 1)": 100}
{"binder": "B5", "cAMP EC50 (assay 1)": 79}
{"binder": "B6", "cAMP EC50 (assay 1)": 99.7}
{"binder": "B7", "cAMP EC50 (assay 1)": 402}
{"molecular_target": "human glucagon receptor (human, UniProt P47871 26-477)", "sequence (P47871 26-477)": "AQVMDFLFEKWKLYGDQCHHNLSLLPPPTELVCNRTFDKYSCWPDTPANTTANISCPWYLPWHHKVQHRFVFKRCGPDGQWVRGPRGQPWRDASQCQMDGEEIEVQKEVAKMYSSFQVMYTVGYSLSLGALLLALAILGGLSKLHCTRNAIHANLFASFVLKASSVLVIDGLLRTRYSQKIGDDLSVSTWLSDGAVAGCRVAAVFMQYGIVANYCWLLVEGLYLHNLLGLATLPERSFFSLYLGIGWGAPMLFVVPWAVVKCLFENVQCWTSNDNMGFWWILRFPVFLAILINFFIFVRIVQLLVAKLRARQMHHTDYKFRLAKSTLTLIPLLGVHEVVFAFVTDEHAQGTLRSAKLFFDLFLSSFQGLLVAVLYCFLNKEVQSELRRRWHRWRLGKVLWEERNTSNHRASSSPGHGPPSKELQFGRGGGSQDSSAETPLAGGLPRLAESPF", "assay": "cell-based or functional assay", "units": {"cAMP EC50 (assay 1)": "pM"}}
{"binder": "B1", "cAMP EC50 (assay 1)": 2.19}
{"binder": "B2", "cAMP EC50 (assay 1)": 1.95}
{"binder": "B3", "cAMP EC50 (assay 1)": 1.68}
{"binder": "B4", "cAMP EC50 (assay 1)": 15.5}
{"binder": "B5", "cAMP EC50 (assay 1)": 10.4}
{"binder": "B6", "cAMP EC50 (assay 1)": 1.44}
{"binder": "B7", "cAMP EC50 (assay 1)": 2.86}
